Key:
[1] = target: T1, recombinant human his-tagged PD-L1 protein (human, UniProt Q9NZQ7 19-238); experiment: ELISA, his-tagged PDL1 coated, OD450
T1 construct: also called hPDL1-his; his-tagged human PD-L1; not shown: his tag
Description: Briefly, for ELISA-based binding, his-tagged PDL1 was used as coating protein.

[2] = target: T1, recombinant human his-tagged PD-L1 …; experiment: SPR (Biacore T200), ligand captured on protein A chip, hPDL1-his as analyte
Description: A series of dilutions of human PD-L1 protein were injected over captured antibody at a flow rate of 10 μL/min. […] All the experiments were carried out on a Biacore T200. Data analysis was carried out using Biacore T200 evaluation software.

[3] = target: T2, IL7R of human primary CD4+ T cells (human, UniProt P16871 21-459); experiment: flow cytometry on human primary CD4+ T cells, 4 °C 30 min, PE anti-human Fc
T2 construct: whole, on cells; also called IL-7 receptor; IL7Rα (CD127) on CD4+ T cells
T2 sequence (looked up): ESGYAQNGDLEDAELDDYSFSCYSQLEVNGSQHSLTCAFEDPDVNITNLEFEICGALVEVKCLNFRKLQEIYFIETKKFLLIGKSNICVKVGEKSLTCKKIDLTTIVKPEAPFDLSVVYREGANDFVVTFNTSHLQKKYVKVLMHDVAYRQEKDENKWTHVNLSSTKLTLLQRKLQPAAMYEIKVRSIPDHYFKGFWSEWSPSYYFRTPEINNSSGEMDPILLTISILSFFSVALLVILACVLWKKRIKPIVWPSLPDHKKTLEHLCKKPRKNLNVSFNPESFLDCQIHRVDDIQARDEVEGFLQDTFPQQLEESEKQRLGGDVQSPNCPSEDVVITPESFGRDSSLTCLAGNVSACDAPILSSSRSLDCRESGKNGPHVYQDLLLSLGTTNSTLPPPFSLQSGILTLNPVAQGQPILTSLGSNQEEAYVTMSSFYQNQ
Description: Briefly, for IL7R binding assay, human primary CD4⁺ T cells were incubated with various anti-PDL1-IL7 fusion molecules at 4° C. for 30 mins. […] For ligation-mediated receptor internalization assay, human primary CD4⁺ T cells were cocultured with fusion molecules at 37° C. for 15 mins to induce internalization. PE-cy7-conjugated-anti-CD127 (IL7Rα) antibody was used to detect the surface IL7Rα by FACS.

[4] = target: T3, PD-L1 expressed on cells (Raji-PD-L1; tumor cell lines RKO, HCC1954, HCC827) (human, UniProt Q9NZQ7 19-290); experiment: flow cytometry on HCC827 lung cancer cells, MFI
T3 construct: whole, on cells; also called cell-surface expressed PD-L1; cell surface PD-L1
T3 sequence (Q9NZQ7 19-290): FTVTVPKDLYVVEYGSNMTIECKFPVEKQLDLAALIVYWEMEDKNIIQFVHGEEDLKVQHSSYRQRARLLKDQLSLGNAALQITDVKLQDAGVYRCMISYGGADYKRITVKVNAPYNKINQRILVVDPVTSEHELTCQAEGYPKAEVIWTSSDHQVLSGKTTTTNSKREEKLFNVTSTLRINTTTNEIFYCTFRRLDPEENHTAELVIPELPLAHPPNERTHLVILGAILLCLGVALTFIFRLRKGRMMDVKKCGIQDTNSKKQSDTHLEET

[5] = target: T3, PD-L1 expressed on cells (Raji-PD-L1; …); experiment: flow cytometry on RKO colon carcinoma cells, MFI
[6] = target: T3, PD-L1 expressed on cells (Raji-PD-L1; …); experiment: flow cytometry on HCC1954 breast cancer cells, MFI
[7] = target: T3, PD-L1 expressed on cells (Raji-PD-L1; …); experiment: flow cytometry on Raji-PD-L1 cells, PE anti-human IgG Fc, MFI
Description: After washing by FACS staining buffer, the PE-conjugated anti-human IgG Fc specific antibody was added to each well and incubated on ice for 30 mins. The MFI of PE were evaluated by FACS Celesta.

T1 sequence (Q9NZQ7 19-238 limits assumed): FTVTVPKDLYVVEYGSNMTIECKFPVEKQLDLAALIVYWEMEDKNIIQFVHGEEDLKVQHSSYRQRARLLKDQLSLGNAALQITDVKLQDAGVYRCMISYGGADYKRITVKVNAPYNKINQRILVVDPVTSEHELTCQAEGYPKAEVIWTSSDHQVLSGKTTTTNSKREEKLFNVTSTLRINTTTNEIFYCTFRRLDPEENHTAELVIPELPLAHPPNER

B1: α-PDL1(anti-PD-L1 v3) monoclonal antibody (antibody, V domains shown)
VH: EVQLVESGGGLVQPGGSLRLSCAASGFTFSSYDMSWVRQAPGKSLEWVATISDAGGYIYYSDSVKGRFTISRDNAKNSLYLQMNSLRDEDTAVYICAREFGKRYALDYWGQGTTVTVSS
VL: DIQMTQSPSSLSASVGDRVTITCKASQDVTPAVAWYQQKPGKAPKLLIYSTSSRYTGVPSRFSGSGSGTDFTFTISSLQPEDIATYYCQQHYTTPLTFGQGTKLEIK
notes: also called parental anti-PD-L1 antibody (v3)
Question: Which EC50 [1] does the source give for B1 here?
Answer: 0.11 nM

Question: And the Kd [2]?
Answer: 2.03 nM

Question: And the koff [2]?
Answer: 0.000164 s⁻¹

Question: What about the kon [2] of the same binder?
Answer: 80700 M⁻¹ s⁻¹

Question: Does B1 bind [3]?
Answer: no binding (tested: 100 nM)

B2: α-PDL1(anti-PD-L1 v4) monoclonal antibody (antibody, V domains shown)
VH: QVQLLESGGGLVQPGGSLRLSCAASGFTFSSYWMSWVRQAPGKGLEWVANIKQDGSEKYYVDSVKGRFTISRDNAKNSLYLQMNSLRAEDTAVYYCARVALWDDAFDIWGQGTMVTVSS
VL: DIQMTQSPSTLSASVGDRVIITCRASRGISSWLAWYQQKPGKAPNLLISKASSLESGVPSRFSGSGSGTDFTLTISSLQPEDFATYYCQQSSSIPLTFGGGTKVEIK
notes: also called parental anti-PD-L1 (V4) antibody
Question: What does the source list for B2?
Answer: EC50 [1]: 0.46 nM; EC50 [4]: 0.17 nM; EC50 [5]: 0.19 nM; EC50 [6]: 0.28 nM; EC50 [7]: 0.11 nM; Kd [2]: 0.948 nM; koff [2]: 0.000795 s⁻¹; kon [2]: 838000 M⁻¹ s⁻¹
